Patent US20240261333A1 (published 2024)

T1: CALML5 (human, UniProt Q9NZT1 2-146)
T1 construct: also called NP_059118.2
T1 sequence (looked up): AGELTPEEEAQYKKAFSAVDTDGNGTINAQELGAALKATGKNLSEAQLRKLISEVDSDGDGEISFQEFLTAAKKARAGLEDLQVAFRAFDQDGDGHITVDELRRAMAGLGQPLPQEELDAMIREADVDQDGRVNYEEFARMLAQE

T2: CHCHD3 (human, UniProt Q9NX63 2-227, limits assumed)
T2 construct: also called NP_001304106.1 (+1)
T2 sequence (looked up): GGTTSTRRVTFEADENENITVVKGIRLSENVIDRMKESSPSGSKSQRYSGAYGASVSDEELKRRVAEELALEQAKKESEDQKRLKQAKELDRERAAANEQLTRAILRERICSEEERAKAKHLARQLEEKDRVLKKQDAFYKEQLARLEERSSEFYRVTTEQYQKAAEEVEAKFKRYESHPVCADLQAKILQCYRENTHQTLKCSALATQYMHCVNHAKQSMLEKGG

T3: JUP (human, UniProt P14923 1-745)
T3 construct: also called NP_001339702.1
T3 sequence (looked up): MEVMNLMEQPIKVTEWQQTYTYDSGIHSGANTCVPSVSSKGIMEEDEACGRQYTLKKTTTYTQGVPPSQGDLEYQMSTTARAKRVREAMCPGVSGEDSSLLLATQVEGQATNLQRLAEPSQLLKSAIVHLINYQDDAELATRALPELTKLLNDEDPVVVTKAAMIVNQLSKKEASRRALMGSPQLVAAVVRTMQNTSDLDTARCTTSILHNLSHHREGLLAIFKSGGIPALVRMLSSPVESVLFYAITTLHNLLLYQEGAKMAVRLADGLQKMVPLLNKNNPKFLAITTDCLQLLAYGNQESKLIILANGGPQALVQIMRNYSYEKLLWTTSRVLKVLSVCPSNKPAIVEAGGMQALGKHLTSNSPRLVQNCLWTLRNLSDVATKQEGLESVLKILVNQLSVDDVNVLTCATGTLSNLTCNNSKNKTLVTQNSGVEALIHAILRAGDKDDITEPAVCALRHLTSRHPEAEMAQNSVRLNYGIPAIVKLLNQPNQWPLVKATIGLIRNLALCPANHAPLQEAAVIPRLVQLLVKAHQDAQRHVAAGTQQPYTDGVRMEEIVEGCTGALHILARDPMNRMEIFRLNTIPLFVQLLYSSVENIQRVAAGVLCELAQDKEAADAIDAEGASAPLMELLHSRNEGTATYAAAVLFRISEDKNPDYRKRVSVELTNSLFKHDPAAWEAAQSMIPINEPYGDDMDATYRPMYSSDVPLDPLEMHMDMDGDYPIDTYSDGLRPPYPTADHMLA

B1: N-terminal FLAG tagged B3GNT2 (enzyme, human, UniProt Q9NY97 1-397, looked up)
chain: MSVGRRRIKLLGILMMANVFIYFIMEVSKSSSQEKNGKGEVIIPKEKFWKISTPPEAYWNREQEKLNRQYNPILSMLTNQTGEAGRLSNISHLNYCEPDLRVTSVVTGFNNLPDRFKDFLLYLRCRNYSLLIDQPDKCAKKPFLLLAIKSLTPHFARRQAIRESWGQESNAGNQTVVRVFLLGQTPPEDNHPDLSDMLKFESEKHQDILMWNYRDTFFNLSLKEVLFLRWVSTSCPDTEFVFKGDDDVFVNTHHILNYLNSLSKTKAKDLFIGDVIHNAGPHRDKKLKYYIPEVVYSGLYPPYAGGGGFLYSGHLALRLYHITDQVHLYPIDDVYTGMCLQKLGLVPEKHKGFRTFDIEEKNKNNICSYVDLMLVHSRKPQEMIDIWSQLQSAHLKC
notes: FLAG-tagged ORF overexpressed in cells; pulled down from lysate with mouse anti-FLAG; also called N-FLAG B3GNT2; N-term FLAG; not shown: N-terminal FLAG tag
B2: N-terminal FLAG tagged B3GNT2 (enzyme, human, UniProt Q9NY97 1-397, looked up)
chain: B1 chain
notes: FLAG-tagged ORF overexpressed in A375 cells; pulled down from the lysate with mouse anti-FLAG; also called N-FLAG B3GNT2; N-term FLAG; not shown: N-terminal FLAG tag

Assays:
Assay in all cases: co-IP with anti-FLAG, N-FLAG B3GNT2, mass spectrometry
LGALS7B = molecular target: T4, LGALS7B (human, UniProt P47929 1-136)
T4 construct: also called NP_001035972.1

CALML5 = molecular target: T1, CALML5
CHCHD3 = molecular target: T2, CHCHD3
PRRC2C = molecular target: T5, PRRC2C (human, UniProt Q9Y520-4 1-2817, limits assumed)
T5 construct: also called NP_055987.2 (+10)

JUP = molecular target: T3, JUP
CLTC = molecular target: T6, CLTC (human, UniProt Q00610 2-1675, limits assumed)
T6 construct: also called NP_001275582.1 (+2)
T6 sequence (Q00610 2-1675 limits assumed): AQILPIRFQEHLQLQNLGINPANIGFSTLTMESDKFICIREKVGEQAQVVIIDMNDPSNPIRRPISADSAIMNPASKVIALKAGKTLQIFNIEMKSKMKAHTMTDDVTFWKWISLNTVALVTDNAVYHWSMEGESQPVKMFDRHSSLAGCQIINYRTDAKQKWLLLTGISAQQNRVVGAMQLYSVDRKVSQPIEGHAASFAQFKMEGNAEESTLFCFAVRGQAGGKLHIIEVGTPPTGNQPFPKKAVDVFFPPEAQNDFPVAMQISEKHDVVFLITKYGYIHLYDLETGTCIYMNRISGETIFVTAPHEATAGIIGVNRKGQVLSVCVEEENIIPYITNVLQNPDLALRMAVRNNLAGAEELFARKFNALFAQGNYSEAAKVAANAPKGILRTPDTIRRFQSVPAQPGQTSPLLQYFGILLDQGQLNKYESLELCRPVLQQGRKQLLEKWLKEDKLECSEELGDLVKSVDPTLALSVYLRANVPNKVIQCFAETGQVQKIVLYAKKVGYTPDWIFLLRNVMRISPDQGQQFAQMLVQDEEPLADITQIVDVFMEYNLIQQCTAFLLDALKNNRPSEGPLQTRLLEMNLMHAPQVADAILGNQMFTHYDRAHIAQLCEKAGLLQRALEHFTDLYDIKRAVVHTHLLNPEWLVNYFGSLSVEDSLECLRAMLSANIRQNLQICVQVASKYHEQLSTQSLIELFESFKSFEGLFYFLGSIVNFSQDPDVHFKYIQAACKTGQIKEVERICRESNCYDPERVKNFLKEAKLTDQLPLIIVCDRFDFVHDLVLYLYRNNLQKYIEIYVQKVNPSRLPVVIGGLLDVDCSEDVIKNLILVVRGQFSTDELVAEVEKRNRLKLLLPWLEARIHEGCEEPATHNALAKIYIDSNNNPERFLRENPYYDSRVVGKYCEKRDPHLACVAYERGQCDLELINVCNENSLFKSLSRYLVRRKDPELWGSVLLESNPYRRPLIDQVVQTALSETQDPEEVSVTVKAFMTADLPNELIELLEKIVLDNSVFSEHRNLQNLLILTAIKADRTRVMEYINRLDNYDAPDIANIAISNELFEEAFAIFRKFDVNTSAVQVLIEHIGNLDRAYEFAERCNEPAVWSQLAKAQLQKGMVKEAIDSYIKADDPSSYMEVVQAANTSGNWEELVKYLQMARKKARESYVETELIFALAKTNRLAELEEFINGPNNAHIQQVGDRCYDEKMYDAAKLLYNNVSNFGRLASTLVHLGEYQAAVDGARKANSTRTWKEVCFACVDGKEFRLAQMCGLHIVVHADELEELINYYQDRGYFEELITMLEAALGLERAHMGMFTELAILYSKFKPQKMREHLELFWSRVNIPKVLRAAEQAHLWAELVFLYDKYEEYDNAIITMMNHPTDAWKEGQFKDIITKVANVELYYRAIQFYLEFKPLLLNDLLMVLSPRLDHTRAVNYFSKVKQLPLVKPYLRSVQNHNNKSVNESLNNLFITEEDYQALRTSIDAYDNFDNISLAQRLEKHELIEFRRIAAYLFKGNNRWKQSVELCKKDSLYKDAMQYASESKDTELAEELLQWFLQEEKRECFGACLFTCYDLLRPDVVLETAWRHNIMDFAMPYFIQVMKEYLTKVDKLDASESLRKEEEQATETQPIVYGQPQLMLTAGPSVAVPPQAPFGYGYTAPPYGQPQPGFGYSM

T4 sequence (P47929 whole entry): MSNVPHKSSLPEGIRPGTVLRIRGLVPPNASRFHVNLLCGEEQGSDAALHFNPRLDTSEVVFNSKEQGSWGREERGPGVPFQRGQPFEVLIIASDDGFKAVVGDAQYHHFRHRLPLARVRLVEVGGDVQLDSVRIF
T5 sequence (Q9Y520 other isoform, or with tags, fused parts or gaps limits assumed): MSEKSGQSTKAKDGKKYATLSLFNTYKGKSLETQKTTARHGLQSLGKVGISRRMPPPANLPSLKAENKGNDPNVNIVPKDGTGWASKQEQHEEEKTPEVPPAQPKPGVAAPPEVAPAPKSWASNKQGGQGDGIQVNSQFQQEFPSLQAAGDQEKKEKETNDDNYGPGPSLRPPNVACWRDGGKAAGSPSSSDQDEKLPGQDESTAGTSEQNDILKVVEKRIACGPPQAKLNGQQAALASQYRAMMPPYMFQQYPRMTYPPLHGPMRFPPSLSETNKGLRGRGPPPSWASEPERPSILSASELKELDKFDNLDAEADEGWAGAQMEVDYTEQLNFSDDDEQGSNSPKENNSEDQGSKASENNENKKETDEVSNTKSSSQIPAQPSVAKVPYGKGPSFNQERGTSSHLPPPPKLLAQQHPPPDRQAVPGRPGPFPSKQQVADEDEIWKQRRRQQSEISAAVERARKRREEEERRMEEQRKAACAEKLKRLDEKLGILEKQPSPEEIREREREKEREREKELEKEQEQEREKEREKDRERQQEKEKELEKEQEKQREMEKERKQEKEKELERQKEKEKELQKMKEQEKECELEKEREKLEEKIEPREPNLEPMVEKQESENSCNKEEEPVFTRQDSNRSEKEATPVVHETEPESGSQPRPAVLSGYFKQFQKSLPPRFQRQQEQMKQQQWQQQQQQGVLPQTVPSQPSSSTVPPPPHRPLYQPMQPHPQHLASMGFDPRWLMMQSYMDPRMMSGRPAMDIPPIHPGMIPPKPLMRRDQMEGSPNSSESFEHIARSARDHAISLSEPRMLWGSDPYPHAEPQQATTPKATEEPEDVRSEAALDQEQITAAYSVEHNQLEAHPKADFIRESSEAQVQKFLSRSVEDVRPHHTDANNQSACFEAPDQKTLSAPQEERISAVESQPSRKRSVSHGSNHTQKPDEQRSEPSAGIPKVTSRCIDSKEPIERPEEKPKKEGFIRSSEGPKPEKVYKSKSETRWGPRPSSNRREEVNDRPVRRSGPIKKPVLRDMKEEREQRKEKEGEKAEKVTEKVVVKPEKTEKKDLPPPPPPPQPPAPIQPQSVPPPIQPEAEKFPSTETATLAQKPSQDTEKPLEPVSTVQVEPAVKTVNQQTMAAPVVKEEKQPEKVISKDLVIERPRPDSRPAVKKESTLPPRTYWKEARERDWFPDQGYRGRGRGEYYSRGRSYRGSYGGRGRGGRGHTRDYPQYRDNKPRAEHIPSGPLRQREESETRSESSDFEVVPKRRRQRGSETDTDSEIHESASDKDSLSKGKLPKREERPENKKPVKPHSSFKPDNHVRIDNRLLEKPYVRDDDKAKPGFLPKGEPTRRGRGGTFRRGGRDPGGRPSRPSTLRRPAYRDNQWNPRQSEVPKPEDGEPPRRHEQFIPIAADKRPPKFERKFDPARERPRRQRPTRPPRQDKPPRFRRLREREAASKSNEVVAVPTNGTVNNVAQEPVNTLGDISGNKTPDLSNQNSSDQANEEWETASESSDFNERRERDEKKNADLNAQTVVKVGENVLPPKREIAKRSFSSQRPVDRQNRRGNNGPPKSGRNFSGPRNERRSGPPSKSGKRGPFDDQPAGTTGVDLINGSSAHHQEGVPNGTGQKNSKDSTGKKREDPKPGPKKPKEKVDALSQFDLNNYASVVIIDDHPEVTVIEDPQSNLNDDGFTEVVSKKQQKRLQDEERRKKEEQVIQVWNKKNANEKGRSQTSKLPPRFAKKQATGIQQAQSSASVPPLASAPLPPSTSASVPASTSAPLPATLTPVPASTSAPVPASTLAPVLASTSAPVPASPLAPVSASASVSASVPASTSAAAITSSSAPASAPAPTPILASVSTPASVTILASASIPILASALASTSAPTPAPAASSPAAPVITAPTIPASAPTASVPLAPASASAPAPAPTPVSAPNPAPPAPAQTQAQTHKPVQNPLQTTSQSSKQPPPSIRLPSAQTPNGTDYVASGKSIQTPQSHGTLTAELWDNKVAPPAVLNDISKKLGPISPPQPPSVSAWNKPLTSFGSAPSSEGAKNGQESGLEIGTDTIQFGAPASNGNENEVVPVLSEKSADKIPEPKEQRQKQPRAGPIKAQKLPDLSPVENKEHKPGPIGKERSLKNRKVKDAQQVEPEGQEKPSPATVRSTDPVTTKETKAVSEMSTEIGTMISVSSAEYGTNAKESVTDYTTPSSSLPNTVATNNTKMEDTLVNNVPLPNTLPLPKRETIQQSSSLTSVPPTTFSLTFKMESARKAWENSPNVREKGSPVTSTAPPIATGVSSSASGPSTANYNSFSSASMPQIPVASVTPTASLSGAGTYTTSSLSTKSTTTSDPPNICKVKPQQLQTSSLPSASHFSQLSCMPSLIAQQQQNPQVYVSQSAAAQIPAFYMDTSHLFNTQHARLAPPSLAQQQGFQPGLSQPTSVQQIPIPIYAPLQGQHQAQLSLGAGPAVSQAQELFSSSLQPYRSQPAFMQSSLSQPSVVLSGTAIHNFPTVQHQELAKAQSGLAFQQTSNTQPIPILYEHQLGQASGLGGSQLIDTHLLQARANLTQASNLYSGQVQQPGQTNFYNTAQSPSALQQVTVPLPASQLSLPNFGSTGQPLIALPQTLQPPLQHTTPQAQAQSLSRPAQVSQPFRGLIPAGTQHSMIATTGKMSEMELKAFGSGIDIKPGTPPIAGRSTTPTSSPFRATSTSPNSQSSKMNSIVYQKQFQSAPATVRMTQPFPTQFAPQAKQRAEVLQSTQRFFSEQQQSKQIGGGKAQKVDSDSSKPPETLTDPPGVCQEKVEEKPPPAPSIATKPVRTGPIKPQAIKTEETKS

Binder	co-IP mass spectrometry count (LGALS7B)	co-IP mass spectrometry count (CALML5)	co-IP mass spectrometry count (CHCHD3)	co-IP/MS count, N-term FLAG (PRRC2C)	co-IP/MS count, N-term FLAG (JUP)	co-IP/MS count, N-term FLAG (CLTC)
B1	7	0	16	–	–	–
B2	–	–	–	6	47	6
